From PMC4968546, “Heterologous Production and Characterization of Two Glyoxal Oxidases from Pycnoporus cinnabarinus” (Applied and Environmental Microbiology, 2016) come the findings set out here.

Common to all, as to assay: HRP/ABTS coupled H2O2 assay, A420, Lineweaver-Burk
Common to all, as to format: biochemical, Trametes cinnabarina
What all share (settings): 50 mM sodium 2,2-dimethylsuccinate, pH 6, 30°C, O2 as co-substrate, HRP, 0.1 mM ABTS

Substrate in series [1]: O=CC=O
From the text: (§1) HRP/ABTS coupled H2O2 assay, A420, Lineweaver-Burk on PciGLOX1

Substrate in series [2]: CC(=O)C=O
Excerpt: as §1

Substrate in series [3]: O=CC(=O)O
Excerpt: as §1

Substrate in series [4]: O=CC=O
From the text: (§2) HRP/ABTS coupled H2O2 assay, A420, Lineweaver-Burk on PciGLOX2
The source holds these as a separate data set.

Substrate in series [5]: CC(=O)C=O
Excerpt: as §2
The source holds these as a separate data set.

Substrate in series [6]: O=CC(=O)O
Excerpt: as §2
This is another data set of the same source.

Substrate in series [7]: OCC(O)CO
Excerpt: as §2

By Km is commonly meant the concentration of substrate that gives half-maximal velocity. The term Vmax denotes the top rate of the reaction or transport when substrate is in excess. Broadly, the kcat is the number of substrate molecules converted per active site and unit of time at saturation. In general, kcat/Km refers to the turnover number divided by the Michaelis constant.

B1: PciGLOX1 (Trametes cinnabarina) (protein)
chain: APSAPGWRFDLKAERSGIVALESIVVSPTLVLWFDRASDDPLQINNHSAWGALWNLETSTVRPLNVLTNSFCASGALLSNGSMASVGGDPRGFPGNPAINPGNQAIRIFEPCASPTGDGCTVFEDPQTLHLLEDRWYPSSIRIFDGSLLIVGGTHVNENFYNLHPANSFEFFPPKESTPRPSAFLERSLPANLFPRIFALPDGKVFMVANNQSIIYDIEANTERILPDIPNNVRVTNPIDGSAILLPLTPPDYIPEVLVCGGTSTDPLDPSLLSSQTPATTQCSRIRLDEEGIAKGWQVEHMLEPRTMPELVHIPNGQILIANGARTGFAAIKQVQDPIGNSNSDHAVLVPSIYTPDAPLGQRISNAGMPSSGIARVYHSSITLTPQGNFLIAGSNPNGNTTVGPGVKFPSEFRVQTLDPPFMFVERPKILNTPEKLAFNKTFTVPISVPSTLASPGAKVQVSLMDLGFSSHAFHSSARLVFMDATISRDRRSLTFTTPPNGRVFPPGPATVFLTIDGVTSEGAWVMMGSGNSPPTLE
notes: secreted from Aspergillus niger D15#26; native 18-aa signal peptide … replaced by A. niger glucoamylase prepro (removed in processing); ORF 556 aa; N-terminus APSA; N-glycosylated, 70 kDa (about 60 kDa deglycosylated)
B1: in series [1], the Km amounted to 13.1 mM, the Vmax amounted to 85.3 µmol/min/mg, the kcat stood at 83 s⁻¹ and the kcat/Km is 6340 M⁻¹ s⁻¹. Moreover, in series [2], the Km is 1.3 mM, the maximum rate (Vmax) was found to be 77.3 µmol/min/mg, the kcat amounted to 76 s⁻¹ and the kcat/Km was 58500 M⁻¹ s⁻¹. In series [3], the Km was 0.088 mM, the Vmax turned out to be 192 µmol/min/mg, the turnover number (kcat) came out at 188 s⁻¹ and the kcat/Km came out at 2.14e+06 M⁻¹ s⁻¹.

B2: PciGLOX2 (Trametes cinnabarina) (protein)
chain: APSTPTGWQFNLKAERSGIVALESIVVSPTLVVFFDRATNDPLQINNHSAWGALWNLETSTVRALDVLTNSFCASGALLSNGTMASIGGDPNGFPGNPAIHPGTQAIRLFEPCDSPTGEGCTLFEDPVTLHLLEKRWYPSSVRIFDGSLLIVGGMHEETPFYNTDPALSFEFFPPKESTPRPSEFLNRSLPANLFPRVFALPDGKVFMVANNQSIIYDIEANTERILPDIPNNVRVTNPIDGSAILLPLSPPDFVPEVLVCGGTQTDTIDPSLLTSQTPASSQCSRIRLDEEGIARGWEVEHMLEGRMMPELVHLPNGQVLIANGARTGFAAIASVSDPVGGSNADHAVLVPSLYTPDAPLGTRISNVGLPSSGIARVYHSSITLTPQGNFLIAGSNPNNNSSVTAGVKFPSEFRVQTLDPPFMFVERPKILSMPKKLAFGKSFTVPIAVPSTLAHPGAKVQVSLMDLGFSSHAFHSSARLVFMNAKISQDGKSLTFTTPPNGRVYPPGPATIFLTIDDVTSEGAWVMMGSGNPPPTLE
notes: secreted from Aspergillus niger D15#26; ORF 559 aa; N-terminus APST; N-glycosylated, 70 kDa (about 60 kDa deglycosylated)
In the case of B2, in series [4], the Km is reported as 2.2 mM, the maximum rate (Vmax) was found to be 15 µmol/min/mg, the kcat stood at 1.4 s⁻¹ and the kcat/Km came to 636 M⁻¹ s⁻¹. In series [5], the Km stood at 0.2 mM and the turnover number (kcat) amounted to 1.4 s⁻¹. Moreover, in series [6], the Michaelis-Menten constant (Km) was 0.1 mM, the Vmax turned out to be 17.9 µmol/min/mg, the kcat worked out at 1.7 s⁻¹ and the kcat/Km is 17000 M⁻¹ s⁻¹. Moreover, in series [7], the Km is reported as 9.4 mM, the Vmax was 6.42 µmol/min/mg, the kcat is 0.6 s⁻¹ and the kcat/Km worked out at 63 M⁻¹ s⁻¹.
